{"source": "patent US20110311550A1", "about": "(Scripps Research, published 2011)", "assay_in_all_cases": "ELISA, lectin-captured E1E2 lysate, Ab 1 ug/ml;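 also: E1E2 captured on Galanthus nivalis lectin-coated plates, bound test antibody read out by an HRP-linked secondary antibody and TMB colour development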", "key": {"[1]": {"target": "E1E2 complex (H77) with E1 mutation P228A (HCV genotype 1a, isolate H77, UniProt P27958 192-383; P27958 384-746)"}, "[2]": {"target": "E1E2 complex (H77) with E1 mutation G354A (HCV genotype 1a, isolate H77, UniProt P27958 192-383; P27958 384-746)"}, "[3]": {"target": "E1E2 complex (H77) with E1 mutation Y201A (HCV genotype 1a, isolate H77, UniProt P27958 192-383; P27958 384-746)"}, "[4]": {"target": "E1E2 complex (H77) with E1 mutation N305A/N234A (HCV genotype 1a, isolate H77, UniProt P27958 192-383; P27958 384-746)"}, "[5]": {"target": "E1E2 complex (H77) with E1 mutation S273A (HCV genotype 1a, isolate H77, UniProt P27958 192-383; P27958 384-746)"}, "[6]": {"target": "E1E2 complex (H77) with E1 mutation H222A (HCV genotype 1a, isolate H77, UniProt P27958 192-383; P27958 384-746)"}, "[7]": {"target": "E1E2 complex (H77) with E1 mutation G315A (HCV genotype 1a, isolate H77, UniProt P27958 192-383; P27958 384-746)"}, "[8]": {"target": "E1E2 complex (H77) with E1 mutation M322A (HCV genotype 1a, isolate H77, UniProt P27958 192-383; P27958 384-746)"}, "[9]": {"target": "E1E2 complex (H77) with E1 mutation G225A (HCV genotype 1a, isolate H77, UniProt P27958 192-383; P27958 384-746)"}, "[10]": {"target": "E1E2 complex (H77) with E1 mutation W353A (HCV genotype 1a, isolate H77, UniProt P27958 192-383; P27958 384-746)"}, "[11]": {"target": "E1E2 complex (H77) with E1 mutation P341A (HCV genotype 1a, isolate H77, UniProt P27958 192-383; P27958 384-746)"}, "[12]": {"target": "E1E2 complex (H77) with E1 mutation D206A (HCV genotype 1a, isolate H77, UniProt P27958 192-383; P27958 384-746)"}, "[13]": {"target": "E1E2 complex (H77) with E1 mutation D321A (HCV genotype 1a, isolate H77, UniProt P27958 192-383; P27958 384-746)"}, "[14]": {"target": "E1E2 complex (H77) with E1 mutation P328A (HCV genotype 1a, isolate H77, UniProt P27958 192-383; P27958 384-746)"}, "[15]": {"target": "E1E2 complex (H77) with E1 mutation Q302A (HCV genotype 1a, isolate H77, UniProt P27958 192-383; P27958 384-746)"}, "[16]": {"target": "E1E2 complex (H77) with E1 mutation V266A (HCV genotype 1a, isolate H77, UniProt P27958 192-383; P27958 384-746)"}, "[17]": {"target": "E1E2 complex (H77) with E1 mutation S327A (HCV genotype 1a, isolate H77, UniProt P27958 192-383; P27958 384-746)"}, "[18]": {"target": "E1E2 complex (H77) with E1 mutation G350A (HCV genotype 1a, isolate H77, UniProt P27958 192-383; P27958 384-746)"}, "[19]": {"target": "E1E2 complex (H77) with E1 mutation M323A (HCV genotype 1a, isolate H77, UniProt P27958 192-383; P27958 384-746)"}, "[20]": {"target": "E1E2 complex (H77) with E1 mutation A269G (HCV genotype 1a, isolate H77, UniProt P27958 192-383; P27958 384-746)"}, "[21]": {"target": "E1E2 complex (H77) with E1 mutation D346A (HCV genotype 1a, isolate H77, UniProt P27958 192-383; P27958 384-746)"}, "[22]": {"target": "E1E2 complex (H77) with E1 mutation L221A (HCV genotype 1a, isolate H77, UniProt P27958 192-383; P27958 384-746)"}}}
{"binder": "N4 IgG (antibody, V domains shown, also called IgG N4) VH: VQLLEQSGPEVKKPGDSLRISCKMSGDSLVTTWIGWVRQKPGQGLEWMGIINPGDSSTNIYPGDSATRYGPSFQGQVTISIDKSTSTAYLQWNNVKASDTGIYYCARHVPVPISGTFLWREREMHDFGYFDDWGQGTLVIVSS VL: ELTLTQSPGTLSLSPGERATLSCRASQSVSNNYLAWYQQKPGQAPRLLIYGASSRATGIPDRFSGSGSGTGFTLIISRLEPEDFAVYYCQQYGSSSITFGQGTRLEIKR", "values": [{"measurement": "Binding relative to wt (%)", "setting": "[1]", "result": 38, "unit": "%"}, {"measurement": "Binding relative to wt (%)", "setting": "[2]", "result": 90, "unit": "%"}, {"measurement": "Binding relative to wt (%)", "setting": "[3]", "result": 7, "unit": "%"}, {"measurement": "Binding relative to wt (%)", "setting": "[4]", "result": 30, "unit": "%"}, {"measurement": "Binding relative to wt (%)", "setting": "[5]", "result": 70, "unit": "%"}, {"measurement": "Binding relative to wt (%)", "setting": "[6]", "result": 44, "unit": "%"}, {"measurement": "Binding relative to wt (%)", "setting": "[7]", "result": 87, "unit": "%"}, {"measurement": "Binding relative to wt (%)", "setting": "[8]", "result": 143, "unit": "%"}, {"measurement": "Binding relative to wt (%)", "setting": "[9]", "result": 79, "unit": "%"}, {"measurement": "Binding relative to wt (%)", "setting": "[10]", "result": 70, "unit": "%"}, {"measurement": "Binding relative to wt (%)", "setting": "[11]", "result": 105, "unit": "%"}, {"measurement": "Binding relative to wt (%)", "setting": "[12]", "result": 17, "unit": "%"}, {"measurement": "Binding relative to wt (%)", "setting": "[13]", "result": 92, "unit": "%"}, {"measurement": "Binding relative to wt (%)", "setting": "[14]", "result": 127, "unit": "%"}, {"measurement": "Binding relative to wt (%)", "setting": "[15]", "result": 6, "unit": "%"}, {"measurement": "Binding relative to wt (%)", "setting": "[16]", "result": 92, "unit": "%"}, {"measurement": "Binding relative to wt (%)", "setting": "[17]", "result": 69, "unit": "%"}, {"measurement": "Binding relative to wt (%)", "setting": "[18]", "result": 68, "unit": "%"}, {"measurement": "Binding relative to wt (%)", "setting": "[19]", "result": 99, "unit": "%"}, {"measurement": "Binding relative to wt (%)", "setting": "[20]", "result": 55, "unit": "%"}, {"measurement": "Binding relative to wt (%)", "setting": "[21]", "result": 83, "unit": "%"}, {"measurement": "Binding relative to wt (%)", "setting": "[22]", "result": 100, "unit": "%"}]}
